In patent US20040242847A1:

Target: human TPO receptor (MPL) (human) (UniProt P40238)
Experiment: cell-based or functional assay

proliferation of BaF/mpl cells (WST-8), ED50: 0.027 nM
Substance: human TPO (R&D Systems) (from UniProt P40225 22-353) (ligand)
